The target in assay [1] is gonadotropin releasing hormone receptor. Put plainly: competition with I125-d-Lys6-GnRH on pituitary membranes; competitor at 28.24 nM.
The target is the same in assay [2]. Kind of assay: competition with I125-d-Lys6-GnRH on pituitary membranes; competitor at 70.59 nM.
Assay [3] has the same target. Put plainly: competition with I125-d-Lys6-GnRH on pituitary membranes; competitor at 176.47 nM.
The target is the same in assay [4]. Put plainly: competition with I125-d-Lys6-GnRH on pituitary membranes; competitor at 441.18 nM.
Assay [5] shares this target. Put plainly: competition with I125-d-Lys6-GnRH on pituitary membranes; competitor at 1102.94 nM.
Assay [6] shares this target. Put plainly: competitive radio-immuno receptor binding assay, pituitary membranes, displacement of I125-d-Lys6-GnRH.
Assay [7] has the same target. Kind of assay: competition with I125-d-Lys6-GnRH on pituitary membranes; competitor at 29.09 nM.
Assay [8] shares this target. Kind of assay: competition with I125-d-Lys6-GnRH on pituitary membranes; competitor at 72.73 nM.
Assay [9] shares this target. Kind of assay: competition with I125-d-Lys6-GnRH on pituitary membranes; competitor at 181.82 nM.
The target is the same in assay [10]. Put plainly: competition with I125-d-Lys6-GnRH on pituitary membranes; competitor at 454.55 nM.
Assay [11] shares this target. Put plainly: competition with I125-d-Lys6-GnRH on pituitary membranes; competitor at 1136.36 nM.
Assay [12] has the same target. Put plainly: competition with I125-d-Lys6-GnRH on pituitary membranes; competitor at 32 nM.
Assay [13] shares this target. Put plainly: competition with I125-d-Lys6-GnRH on pituitary membranes; competitor at 80 nM.
For assay [14] the target is unchanged. Put plainly: competition with I125-d-Lys6-GnRH on pituitary membranes; competitor at 200 nM.
For assay [15] the target is unchanged. Put plainly: competition with I125-d-Lys6-GnRH on pituitary membranes; competitor at 500 nM.
The target is the same in assay [16]. Put plainly: competition with I125-d-Lys6-GnRH on pituitary membranes; competitor at 1250 nM.

Results on three molecules are retold here after patent publication US20140094592A1.

Broadly, the IC50 is the concentration at which inhibition is half-maximal.

As to “d-lys6-GnRH-GMBS-rPAP (from UniProt P10297 23-285)”, the read-out of the competitive receptor binding assay (unit not given) stood at 75 in assay [1]; 78.2 in assay [2]; 49.4 in assay [3]; 34 in assay [4]; 9.24 in assay [5]. This molecule also registered an IC50 in assay [6] of 70 to 200 nM.

Turning to “non-conjugated recombinant PAP (not bound to d-lys6-GnRH-GMBS) (from UniProt P10297 23-285)”, the read-out of the competitive receptor binding assay (unit not given) worked out at 91.5 in assay [7]; 111 in [8]; 96.4 in assay [9]; 98.7 in assay [10]; 74.8 in [11].

B1: d-lys6-GnRH-GMBS-plant-derived mature PAP (protein)
chain: VNTIIYNVGSTTISKYATFLNDLRNEAKDPSLKCYGIPMLPNTNTNPKYVLVELQGSNKKTITLMLRRNNLYVMGYSDPFETNKCRYHIFNDISGTERQDVETTLCPNANSRVSKNINFDSRYPTLESKAGVKSRSQVQLGIQILDSNIGKISGVMSFTEKTEAEFLLVAIQMVSEAARFKYIENQVKTNFNRAFNPNPKVLNLQETWGKISTAIHDAKNGVLPKPLELVDASGAKWIVLRVDEIKPDVALLNYVGGSCQTT
peptide: EHWSYKLRP
modifications: Hp-Glu at position 1 (blocked N-terminus); D-Lys at position 6, carrying the GMBS linker; C-terminal ethyl-amide (Et-NH2) replacing Gly 10; bound through the GMBS linker to d-lys6-GnRH; site of attachment not stated
Turning to B1, the read-out of the competitive receptor binding assay (unit not given) in assay [12] is 65.5; in assay [13], 37.5; in assay [14] it was 10.1; in assay [15], 3.38; in assay [16], 0. The molecule also gave an IC50 in assay [6] of 70 to 200 nM.
